Measured values taken from patent publication US20260226179A1 (MAB DESIGNS, published 2026).
Residue numbers refer to the chain shown, from its start. Values joined by “and” are separate entries in the source; they are usually repeats but may differ in a detail not shown here. Identical values can stand only once.

Legend:
Assay in all cases: cell-based or functional assay
human soluble IL-6R [1] = biological target: T1, human soluble IL-6R (human, UniProt P08887 20-357)
T1 sequence: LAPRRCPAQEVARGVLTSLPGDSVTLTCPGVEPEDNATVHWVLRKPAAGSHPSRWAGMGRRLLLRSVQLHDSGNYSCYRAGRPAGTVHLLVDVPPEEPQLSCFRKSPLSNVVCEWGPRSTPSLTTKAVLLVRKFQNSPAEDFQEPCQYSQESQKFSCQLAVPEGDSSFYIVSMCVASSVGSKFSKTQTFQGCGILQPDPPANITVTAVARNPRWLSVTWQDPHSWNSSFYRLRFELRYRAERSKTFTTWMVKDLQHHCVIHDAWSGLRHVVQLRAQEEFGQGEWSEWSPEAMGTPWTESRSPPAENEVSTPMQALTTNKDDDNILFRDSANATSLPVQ

[2] = biological target: T2, human membrane-bound IL-6R subunit alpha (human, UniProt P08887 20-468)
T2 sequence: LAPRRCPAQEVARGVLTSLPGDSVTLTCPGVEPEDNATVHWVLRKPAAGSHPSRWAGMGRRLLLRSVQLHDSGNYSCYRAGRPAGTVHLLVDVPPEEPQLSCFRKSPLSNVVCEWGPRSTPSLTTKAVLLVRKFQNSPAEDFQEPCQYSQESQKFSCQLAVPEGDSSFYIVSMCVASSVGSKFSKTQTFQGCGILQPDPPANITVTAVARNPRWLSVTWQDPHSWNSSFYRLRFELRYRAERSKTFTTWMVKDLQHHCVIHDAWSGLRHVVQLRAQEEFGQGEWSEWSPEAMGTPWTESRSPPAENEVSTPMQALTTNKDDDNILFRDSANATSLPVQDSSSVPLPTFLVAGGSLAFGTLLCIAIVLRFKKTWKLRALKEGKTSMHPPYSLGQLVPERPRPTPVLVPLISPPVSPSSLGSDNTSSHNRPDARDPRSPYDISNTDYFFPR

human soluble IL-6R [3] = biological target: T3, human soluble IL-6R (human, UniProt P08887 20-357, limits assumed)
T3 sequence: T1 sequence

[4] = biological target: T4, mouse membrane-bound IL-6R subunit alpha (mouse, UniProt P22272 20-460)
T4 sequence: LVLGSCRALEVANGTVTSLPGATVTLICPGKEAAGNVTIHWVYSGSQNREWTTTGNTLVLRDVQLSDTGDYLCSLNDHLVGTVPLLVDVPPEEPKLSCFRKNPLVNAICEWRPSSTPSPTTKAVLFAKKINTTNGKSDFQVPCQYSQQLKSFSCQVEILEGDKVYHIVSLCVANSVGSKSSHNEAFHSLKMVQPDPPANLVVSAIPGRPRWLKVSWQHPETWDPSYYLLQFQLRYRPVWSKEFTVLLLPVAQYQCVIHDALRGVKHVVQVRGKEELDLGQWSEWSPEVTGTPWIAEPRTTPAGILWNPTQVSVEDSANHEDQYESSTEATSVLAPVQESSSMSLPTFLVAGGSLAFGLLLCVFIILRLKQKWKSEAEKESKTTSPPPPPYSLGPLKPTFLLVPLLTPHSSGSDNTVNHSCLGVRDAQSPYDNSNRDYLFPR

[5] = biological target: T5, human membrane-bound IL-6R subunit alpha (human, UniProt P08887 20-468); remark: listed apart in the source
T5 sequence: T2 sequence

[6] = biological target: Hyper-IL-6 (recombinant fusion protein consisting of IL-6 and soluble IL-6R)
human soluble IL-6R [7] = biological target: T3, human soluble IL-6R; remark: listed apart in the source
[8] = biological target: T5, human membrane-bound IL-6R subunit alpha; remark: listed apart in the source
[9] = biological target: T5, human membrane-bound IL-6R subunit alpha; remark: listed apart in the source
[10] = biological target: T4, mouse membrane-bound IL-6R subunit alpha; remark: listed apart in the source
murine soluble IL-6R = biological target: T6, murine soluble IL-6R (mouse, UniProt P22272 20-347, limits assumed)
T6 sequence: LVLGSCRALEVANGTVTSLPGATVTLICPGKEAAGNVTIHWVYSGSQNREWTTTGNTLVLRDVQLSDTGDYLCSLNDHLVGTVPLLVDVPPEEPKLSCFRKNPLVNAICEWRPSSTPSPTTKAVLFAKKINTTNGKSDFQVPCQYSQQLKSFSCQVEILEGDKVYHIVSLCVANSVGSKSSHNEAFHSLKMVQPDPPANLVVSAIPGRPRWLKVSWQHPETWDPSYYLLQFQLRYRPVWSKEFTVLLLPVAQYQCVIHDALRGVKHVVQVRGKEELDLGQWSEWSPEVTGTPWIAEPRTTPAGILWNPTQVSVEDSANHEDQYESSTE

[11] = biological target: T5, human membrane-bound IL-6R subunit alpha; remark: listed apart in the source
[12] = biological target: T5, human membrane-bound IL-6R subunit alpha; remark: listed apart in the source

B1: anti-IL-6R IgG antibody C12 (antibody, V domains shown)
VH: EVKLMESGGGLVQPGGSLKLSCAASGFTFSNYGMSWVRQTPDKRLEWVANINSNGGSTYYPDSVKGRFTISRDNAQNTLYLQMSSLKSEDTAMYYCTRDGNFVSDYWGQGTTLTVSS
VL: DIVLTQSPASLAVSPGQRATISCRASESVDSYGNSFMNWYQQKPGQPPKLLIYLASNLESGVPARFSGSGSRTDFTLTIDPVEADDAATYYCQQNNEDPYTFGGGTKLEIK
Proliferation in % (Ba/F3_gp130 cells, IL-6 + sIL-6R = 100%; IL-6 trans signalling) at IgG 10 ng/ml (human soluble IL-6R [1]): 101%
Proliferation in % (Ba/F3_gp130 cells, IL-6 + sIL-6R = 100%; IL-6 trans signalling) at IgG 100 ng/ml (human soluble IL-6R [1]): 98.9%
Proliferation in % (Ba/F3_gp130 cells, IL-6 + sIL-6R = 100%; IL-6 trans signalling) at IgG 300 ng/ml (human soluble IL-6R [1]): 89.1%
Proliferation in % (Ba/F3_gp130 cells, IL-6 + sIL-6R = 100%; IL-6 trans signalling) at IgG 500 ng/ml (human soluble IL-6R [1]): 75.3%
Proliferation in % (Ba/F3_gp130 cells, IL-6 + sIL-6R = 100%; IL-6 trans signalling) at IgG 700 ng/ml (human soluble IL-6R [1]): 66.9%
Proliferation in % (Ba/F3_gp130 cells, IL-6 + sIL-6R = 100%; IL-6 trans signalling) at IgG 1,000 ng/ml (human soluble IL-6R [1]): 48.1%
Proliferation in % (Ba/F3_gp130 cells, IL-6 + sIL-6R = 100%; IL-6 trans signalling) at IgG 10,000 ng/ml (human soluble IL-6R [1]): 11.6%
IC50 for the inhibition of IL-6 classical signalling-induced proliferation (Ba/F3_gp130_IL-6R cells + IL-6) [2]: > 10 µg/mL
IC50 for the inhibition of IL-6 mixed signalling-induced proliferation (Ba/F3_gp130_IL-6R cells + IL-6 + sIL-6R) [2]: > 10 µg/ml and > 53 nM

B2: anti-IL-6R IgG antibody C19 (antibody, V domains shown)
VH: EVKLMESGGGLVQPGGSLKLSCAASGFTFSNYGMSWVRQTPDKRLELVAIMNSKGGSTYYPDSVMGRFTISRDNAKNTLYLQMSSLKSEDTAMYYCARDGYYTMDYWGQGTSVTVSS
VL: B1 VL with P15L, E27K, Y32F, N38H, P47S, K49R, Y53F
Proliferation in % (Ba/F3_gp130 cells, IL-6 + sIL-6R = 100%; IL-6 trans signalling) at IgG 10 ng/ml (human soluble IL-6R [1]): 99.2%
Proliferation in % (Ba/F3_gp130 cells, IL-6 + sIL-6R = 100%; IL-6 trans signalling) at IgG 100 ng/ml (human soluble IL-6R [1]): 92.2%
Proliferation in % (Ba/F3_gp130 cells, IL-6 + sIL-6R = 100%; IL-6 trans signalling) at IgG 300 ng/ml (human soluble IL-6R [1]): 88.5%
Proliferation in % (Ba/F3_gp130 cells, IL-6 + sIL-6R = 100%; IL-6 trans signalling) at IgG 500 ng/ml (human soluble IL-6R [1]): 78.3%
Proliferation in % (Ba/F3_gp130 cells, IL-6 + sIL-6R = 100%; IL-6 trans signalling) at IgG 700 ng/ml (human soluble IL-6R [1]): 72.3%
Proliferation in % (Ba/F3_gp130 cells, IL-6 + sIL-6R = 100%; IL-6 trans signalling) at IgG 1,000 ng/ml (human soluble IL-6R [1]): 57.7%
Proliferation in % (Ba/F3_gp130 cells, IL-6 + sIL-6R = 100%; IL-6 trans signalling) at IgG 10,000 ng/ml (human soluble IL-6R [1]): 10.8%
IC50 for the inhibition of IL-6 classical signalling-induced proliferation (Ba/F3_gp130_IL-6R cells + IL-6) [2]: > 10 µg/mL
IC50 for the inhibition of IL-6 mixed signalling-induced proliferation (Ba/F3_gp130_IL-6R cells + IL-6 + sIL-6R) [2]: > 10 µg/ml and > 53 nM

B3: anti-IL-6R IgG antibody 07 (C07 antibody, Fab chimerized with human IgG1) (antibody, V domains shown)
VH: B2 VH with M5V, N31S, G33A, P41A, I50N, M51I, K54N, M65K, Y80F, D99E
VL: B1 VL
IC50 of inhibition of proliferation of Ba/F3_gp130 cells induced by 10 ng/ml IL-6 and 200 ng/ml sIL-6R (human soluble IL-6R [3]): 757 ng/ml and 5 nM
Proliferation in % of Ba/F3_gp130_muIL-6R cells (10 ng/ml murine IL-6 = 100%), IgG at 10 µg/ml [4]: 101%
IC50 for inhibition of IL-6 classical signalling-induced proliferation [5]: > 53 nM
IC50 of inhibition of proliferation of Ba/F3_gp130 cells induced by 28 ng/ml Hy-IL-6 [6]: 644 ng/ml and 4.3 nM
STAT3 phosphorylation in % in HEK293 cells (10 ng/ml IL-6 + 200 ng/ml sIL-6R for 30 min = 100%), IgG at 1 µg/ml (human soluble IL-6R [7]): 2.8%
Proliferation in % of Ba/F3_gp130_IL-6R cells (10 ng/ml IL-6 = 100%), IgG at 1 µg/ml [8]: 92%
Proliferation in % of Ba/F3_gp130_IL-6R cells (10 ng/ml IL-6 = 100%), IgG at 10 µg/ml [8]: 90.8%
Proliferation in % of Ba/F3_gp130_IL-6R cells with 10 ng/ml IL-6 and 200 ng/ml sIL-6R (mixed signalling), IgG at 1 µg/ml [9]: 93%
Proliferation in % of Ba/F3_gp130_IL-6R cells with 10 ng/ml IL-6 and 200 ng/ml sIL-6R (mixed signalling), IgG at 10 µg/ml [9]: 85.9%
Proliferation in % of Ba/F3_gp130_muIL-6R cells (10 ng/ml murine IL-6 + 200 ng/ml murine soluble IL-6R = 100%, mixed signalling), IgG at 10 µg/ml [10]: 108%
Proliferation in % of Ba/F3_gp130 cells (10 ng/ml murine IL-6 + 200 ng/ml murine soluble IL-6R = 100%), IgG at 10 µg/ml (murine soluble IL-6R): 104%
STAT3 phosphorylation in % in HEK293_IL-6R cells (10 ng/ml IL-6 + 200 ng/ml sIL-6R = 100%, mixed signalling), IgG at 1 µg/ml [11]: 105%
STAT3 phosphorylation in % in HEK293_IL-6R cells (10 ng/ml IL-6 for 30 min = 100%), IgG at 1 µg/ml [12]: 86.2%

B4: anti-IL-6R IgG antibody 09 (C09 antibody, Fab chimerized with human IgG1) (antibody, V domains shown)
VH: B1 VH with K3Q, M5V, G10D, W47L, N50A, Q76K, T97A, F102Y
VL: B1 VL with P15L, N38H, Y100W
IC50 of inhibition of proliferation of Ba/F3_gp130 cells induced by 10 ng/ml IL-6 and 200 ng/ml sIL-6R (human soluble IL-6R [3]): 5260 ng/ml and 35 nM
Proliferation in % of Ba/F3_gp130_muIL-6R cells (10 ng/ml murine IL-6 = 100%), IgG at 10 µg/ml [4]: 104%
IC50 for inhibition of IL-6 classical signalling-induced proliferation [5]: > 53 nM
IC50 of inhibition of proliferation of Ba/F3_gp130 cells induced by 28 ng/ml Hy-IL-6 [6]: 4130 ng/ml and 28 nM
STAT3 phosphorylation in % in HEK293 cells (10 ng/ml IL-6 + 200 ng/ml sIL-6R for 30 min = 100%), IgG at 1 µg/ml (human soluble IL-6R [7]): 20%
Proliferation in % of Ba/F3_gp130_IL-6R cells (10 ng/ml IL-6 = 100%), IgG at 1 µg/ml [8]: 100%
Proliferation in % of Ba/F3_gp130_IL-6R cells (10 ng/ml IL-6 = 100%), IgG at 10 µg/ml [8]: 94%
Proliferation in % of Ba/F3_gp130_IL-6R cells with 10 ng/ml IL-6 and 200 ng/ml sIL-6R (mixed signalling), IgG at 1 µg/ml [9]: 101%
Proliferation in % of Ba/F3_gp130_IL-6R cells with 10 ng/ml IL-6 and 200 ng/ml sIL-6R (mixed signalling), IgG at 10 µg/ml [9]: 97.6%
Proliferation in % of Ba/F3_gp130_muIL-6R cells (10 ng/ml murine IL-6 + 200 ng/ml murine soluble IL-6R = 100%, mixed signalling), IgG at 10 µg/ml [10]: 106%
Proliferation in % of Ba/F3_gp130 cells (10 ng/ml murine IL-6 + 200 ng/ml murine soluble IL-6R = 100%), IgG at 10 µg/ml (murine soluble IL-6R): 104%
STAT3 phosphorylation in % in HEK293_IL-6R cells (10 ng/ml IL-6 + 200 ng/ml sIL-6R = 100%, mixed signalling), IgG at 1 µg/ml [11]: 102%
STAT3 phosphorylation in % in HEK293_IL-6R cells (10 ng/ml IL-6 for 30 min = 100%), IgG at 1 µg/ml [12]: 69.7%
